Experimental data published in patent publication US20060240001A1 (AGOURON PHARMACEUTICALS, published 2006).

How the values were obtained:
[1] = molecular target: T1, human P-cadherin on the surface of cells (human, UniProt P22223 108-829); assay: epitope competition on A431 cells; competitor: biotinylated 129-1c4 IgG at 1x KD, DELFIA
T1 construct: whole, on cells; also called native P-cadherin on the surface of A431 cells; SW480 cells stably expressing P-cadherin

[2] = molecular target: T1, human P-cadherin on the surface of cells; assay: cell-based or functional assay
[3] = molecular target: T1, human P-cadherin on the surface of cells; assay: cell-based or functional assay; remark: listed apart in the source
[4] = molecular target: T1, human P-cadherin on the surface of cells; assay: cell-based or functional assay; remark: listed apart in the source
[5] = molecular target: T2, Recombinant human P-cadherin Fc (R&D Systems 861-PC-100) (human, UniProt P22223 108-654); assay: ELISA on coated antigen, relative KD
T2 construct: also called recombinant human P-cadherin/Fc fusion protein; hCad/Fc; not shown: Fc part of the bought fusion protein

[6] = molecular target: T1, human P-cadherin on the surface of cells; assay: cell-based or functional assay; remark: listed apart in the source
[7] = molecular target: T2, Recombinant human P-cadherin Fc (R&D …); assay: ELISA; KD on E-cadherin over KD on P-cadherin

IC50 [1] [nM]	A431 Adhesion Assay Mean IC50 (nM) (n = 3) [2]	Binder	other results
0.8	–	scFv variant of 129-1c4 with VH CDR3 SEQ ID NO: 37 and VL CDR3 SEQ ID NO: 295 (scFv, V domains shown, His-tagged purified scFv; also called 37 / 295) VH: not shown VL: QSALTQPASVSGSPGQSITISCTGTSNDVGAYNYVSWYQQHPGKAPKLILSEVNKRPSGVSNRFSGSKSGNTASLSISGLQAEDEADYYCSSFTSGKTFVLFGGGTKLTVL	–
8.73	–	scFv variant of 129-1c4 with VH CDR3 SEQ ID NO: 37 and VL CDR3 SEQ ID NO: 274 (scFv, V domains shown, His-tagged purified scFv; also called 37 / 274) VH: not shown VL: QSALTQPASVSGSPGQSITISCTGTSNDVGAYNYVSWYQQHPGKAPKLILSEVNKRPSGVSNRFSGSKSGNTASLSISGLQAEDEADYYCGAYSAGSTFMLFGGGTKLTVL	–
1.1	–	scFv variant of 129-1c4 with VH CDR3 SEQ ID NO: 37 and VL CDR3 SEQ ID NO: 304 (scFv, V domains shown, His-tagged purified scFv; also called 37 / 304) VH: not shown VL: QSALTQPASVSGSPGQSITISCTGTSNDVGAYNYVSWYQQHPGKAPKLILSEVNKRPSGVSNRFSGSKSGNTASLSISGLQAEDEADYYCSSFTSGPVFNLFGGGTKLTVL	–
1.47	–	scFv variant of 129-1c4 with VH CDR3 SEQ ID NO: 37 and VL CDR3 SEQ ID NO: 303 (scFv, V domains shown, His-tagged purified scFv; also called 37 / 303) VH: not shown VL: QSALTQPASVSGSPGQSITISCTGTSNDVGAYNYVSWYQQHPGKAPKLILSEVNKRPSGVSNRFSGSKSGNTASLSISGLQAEDEADYYCSSFTSGRAFNLFGGGTKLTVL	–
6.67	–	scFv variant of 129-1c4 with VH CDR3 SEQ ID NO: 37 and VL CDR3 SEQ ID NO: 288 (scFv, V domains shown, His-tagged purified scFv; also called 37 / 288) VH: not shown VL: QSALTQPASVSGSPGQSITISCTGTSNDVGAYNYVSWYQQHPGKAPKLILSEVNKRPSGVSNRFSGSKSGNTASLSISGLQAEDEADYYCSSFTSAIPWSLFGGGTKLTVL	–
1.97	–	scFv variant of 129-1c4 with VH CDR3 SEQ ID NO: 37 and VL CDR3 SEQ ID NO: 299 (scFv, V domains shown, His-tagged purified scFv; also called 37 / 299) VH: not shown VL: QSALTQPASVSGSPGQSITISCTGTSNDVGAYNYVSWYQQHPGKAPKLILSEVNKRPSGVSNRFSGSKSGNTASLSISGLQAEDEADYYCSSFTSDRAFNLFGGGTKLTVL	–
2.2	–	scFv variant of 129-1c4 with VH CDR3 SEQ ID NO: 37 and VL CDR3 SEQ ID NO: 277 (scFv, V domains shown, His-tagged purified scFv; also called 37 / 277) VH: not shown VL: QSALTQPASVSGSPGQSITISCTGTSNDVGAYNYVSWYQQHPGKAPKLILSEVNKRPSGVSNRFSGSKSGNTASLSISGLQAEDEADYYCSSFTSGDHWVLFGGGTKLTVL	–
2.19	–	scFv variant of 129-1c4 with VH CDR3 SEQ ID NO: 37 and VL CDR3 SEQ ID NO: 305 (scFv, V domains shown, His-tagged purified scFv; also called 37 / 305) VH: not shown VL: QSALTQPASVSGSPGQSITISCTGTSNDVGAYNYVSWYQQHPGKAPKLILSEVNKRPSGVSNRFSGSKSGNTASLSISGLQAEDEADYYCSSFTSGQQWVLFGGGTKLTVL	–
10.5	–	scFv variant of 129-1c4 with VH CDR3 SEQ ID NO: 37 and VL CDR3 SEQ ID NO: 287 (scFv, V domains shown, His-tagged purified scFv; also called 37 / 287) VH: not shown VL: QSALTQPASVSGSPGQSITISCTGTSNDVGAYNYVSWYQQHPGKAPKLILSEVNKRPSGVSNRFSGSKSGNTASLSISGLQAEDEADYYCSSFTSGIKFTLFGGGTKLTVL	–
2.49	–	scFv variant of 129-1c4 with VH CDR3 SEQ ID NO: 37 and VL CDR3 SEQ ID NO: 297 (scFv, V domains shown, His-tagged purified scFv; also called 37 / 297) VH: not shown VL: QSALTQPASVSGSPGQSITISCTGTSNDVGAYNYVSWYQQHPGKAPKLILSEVNKRPSGVSNRFSGSKSGNTASLSISGLQAEDEADYYCSSFTSSAHFVLFGGGTKLTVL	–
5.11	–	scFv variant of 129-1c4 with VH CDR3 SEQ ID NO: 165 and VL CDR3 SEQ ID NO: 47 (scFv, V domains shown, His-tagged purified scFv; also called 165 / 47) VH: not shown VL: QSALTQPASVSGSPGQSITISCTGTSNDVGAYNYVSWYQQHPGKAPKLILSEVNKRPSGVSNRFSGSKSGNTASLSISGLQAEDEADYYCSSFTSGSTFMLFGGGTKLTVL	–
1.29	–	scFv variant of 129-1c4 with VH CDR3 SEQ ID NO: 195 and VL CDR3 SEQ ID NO: 47 (scFv, V domains shown, His-tagged purified scFv; also called 195 / 47) VH: not shown VL: QSALTQPASVSGSPGQSITISCTGTSNDVGAYNYVSWYQQHPGKAPKLILSEVNKRPSGVSNRFSGSKSGNTASLSISGLQAEDEADYYCSSFTSGSTFMLFGGGTKLTVL	–

The remaining lines, values behind:

Binder	IC50 [1] [nM]	A431 Adhesion Assay Mean IC50 (nM) (n = 3) [2]	other results
scFv variant of 129-1c4 with VH CDR3 SEQ ID NO: 37 and VL CDR3 SEQ ID NO: 40 (scFv, V domains shown, His-tagged purified scFv; also called 37 / 40) VH: not shown VL: QSALTQPASVSGSPGQSITISCTGTSNDVGAYNYVSWYQQHPGKAPKLILSEVNKRPSGVSNRFSGSKSGNTASLSISGLQAEDEADYYCSSFTSGLPWVLFGGGTKLTVL	2.49	–	–
200-h06 (antibody, V domains shown) VH: not shown VL: QSALTQPASVSGSPGQSITISCTGTSNDVGAYNYVSWYQQHPGKAPKLILSEVNKRPSGVSNRFSGSKSGNTASLSISGLQAEDEADYYCTSYRMDSTFMLFGGGTKLTVL	–	0.168	A431 Adhesion Assay Mean IC50 (nM) (n = 2) [3]: 0.63 nM
196-g03 (antibody, V domains shown) VH: not shown VL: QSALTQPASVSGSPGQSITISCTGTSNDVGAYNYVSWYQQHPGKAPKLILSEVNKRPSGVSNRFSGSKSGNTASLSISGLQAEDEADYYCTSYTMGSTFMLFGGGTKLTVL	–	0.149	A431 Adhesion Assay Mean IC50 (nM) (n = 2) [3]: 0.39 nM
195-e11 (antibody, V domains shown) VH: not shown VL: QSALTQPASVSGSPGQSITISCTGTSNDVGAYNYVSWYQQHPGKAPKLILSEVNKRPSGVSNRFSGSKSGNTASLSISGLQAEDEADYYCSSFTSGIVFNLFGGGTKLTVL	–	0.114	A431 Adhesion Assay Mean IC50 (nM) (n = 2) [3]: 0.97 nM
194-g09 (antibody, V domains shown) VH: not shown VL: QSALTQPASVSGSPGQSITISCTGTSNDVGAYNYVSWYQRHPGKAPKLILSEVNKRPSGVSNRFSGSKSGNTASLSISGLQAEDEAEYYCSSYTMGSTFMLFGGGTKLTVL	–	0.158	A431 Adhesion Assay Mean IC50 (nM) (n = 2) [3]: 0.73 nM
194-b09 (antibody, V domains shown) VH: not shown VL: QSALTQPASVSGSPGQSITISCTGTSNDVGAYNYVSWYQQHPGKAPKLILSEVNKRPSGVSNRFSGSKSGNTASLSISGLQAEDEADYYCSSFTSGLPWVVFGGGTKLTVL	–	0.229	A431 Adhesion Assay Mean IC50 (nM) (n = 2) [3]: 2.1 nM
194-e06 (antibody, V domains shown) VH: not shown VL: QSALTQPASVSGSPGQSITISCTGTSNDVGAYNYVSWYQQHPGKAPKLILSEVNKRPSGVSNRFSGSKSGNTASLSISGLQAEDEADYYCSSFTSGLPWVLFGGGTKLTVL	–	0.162	SW480 Aggregation Assay Mean IC50 [4]: 0.7 nM; A431 Adhesion Assay Mean IC50 (nM) (n = 2) [3]: 0.46 nM
scFv variant of 129-1c4 with VH CDR3 SEQ ID NO: 37 and VL CDR3 SEQ ID NO: 261 (scFv, V domains shown, His-tagged purified scFv; also called 37 / 261) VH: not shown VL: QSALTQPASVSGSPGQSITISCTGTSNDVGAYNYVSWYQQHPGKAPKLILSEVNKRPSGVSNRFSGSKSGNTASLSISGLQAEDEADYYCSSFTSQIPWALFGGGTKLTVL	1.78	–	–
scFv variant of 129-1c4 with VH CDR3 SEQ ID NO: 37 and VL CDR3 SEQ ID NO: 43 (scFv, V domains shown, His-tagged purified scFv; also called 37 / 43) VH: not shown VL: QSALTQPASVSGSPGQSITISCTGTSNDVGAYNYVSWYQQHPGKAPKLILSEVNKRPSGVSNRFSGSKSGNTASLSISGLQAEDEADYYCTSYTMGSTFMLFGGGTKLTVL	5.67	–	–
196-h02 (antibody, V domains shown, Tested as IgG converted from scFv; also called 196-h02 IgG) VH: not shown VL: QSALTQPASVSGSPGQSITISCTGTSNDVGAYNYVSWYQQHPGKAPKLILSEVNKRPSGVSNRFSGSKSGNTASLSISGLQAEDEADYYCTSYTMGSTFMLFGGGTKLTVL	–	0.148	Kd [5]: 0.102 nM; SW480 Spheroid Disruption Assay, Fold Increased Disruption vs Control at 5 nM [6]: 10 fold; SW480 Aggregation Assay Mean IC50 [4]: 3.2 nM; KD(E)/KD(P) [7]: 326
